This experiment addresses Mycoplasma penetrans methionyl-tRNA synthetase, full-length, M568A variant (Mycoplasma penetrans). Nature of the experiment: SEC-MALS; size exclusion chromatography with multiangle light scattering of the purified enzyme in solution; conditions not told in the main text. Background: Size exclusion chromatography separates by hydrodynamic size, large species first.

Consider 1 substance from PMC7694997.

The term stoichiometry N denotes a count of units in the complex or per binding partner. Take “Mycoplasma penetrans methionyl-tRNA synthetase, full-length, M568A variant (enzyme)”: the stoichiometry N amounted to 2.
